Assay [1] has as its target purchased CTNI antigen (UniProt P19429). The experiment in a line: fluorescent chromatography card, sandwich; coated on T line; 0 ng/ml (blank, no antigen).
Assay [2] has the same target. The experiment in a line: fluorescent chromatography card, sandwich; coated on T line; 18 ng/ml.
For assay [3] the target is unchanged. Briefly: fluorescent chromatography card, sandwich; coated on T line; 10.5 ng/ml.
Assay [4] shares this target. Briefly: fluorescent chromatography card, sandwich; coated on T line; 0.04 ng/ml.
For assay [5] the target is unchanged. The experiment in a line: fluorescent chromatography card, sandwich; coated on T line; 3 ng/ml.
For assay [6] the target is unchanged. The experiment in a line: fluorescent chromatography card, sandwich; coated on T line; 0.08 ng/ml.
For assay [7] the target is unchanged. Briefly: fluorescent chromatography card, sandwich; coated on T line; 0.7 ng/ml.
The target is the same in assay [8]. Briefly: fluorescent chromatography card, sandwich; coated on T line, other CTNI antibody on fluorescent microspheres; 50 ng/ml.
For assay [9] the target is unchanged. The experiment in a line: fluorescent chromatography card, sandwich; coated on T line; 0.15 ng/ml.

Chain of UniProt P19429 (P19429 2-210 limits assumed): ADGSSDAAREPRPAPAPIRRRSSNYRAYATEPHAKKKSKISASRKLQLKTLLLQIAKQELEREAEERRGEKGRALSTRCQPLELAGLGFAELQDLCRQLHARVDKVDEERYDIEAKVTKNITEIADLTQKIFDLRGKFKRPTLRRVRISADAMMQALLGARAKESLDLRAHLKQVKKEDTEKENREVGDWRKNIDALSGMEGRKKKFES

B1: Anti-cTnI-21C5 monoclonal antibody (antibody, from another filing, V domains shown)
VH: EVQLQQSGPELVKPGASVKMSCKASGYSFTLYVVHWVKQKPGQGLEWIGYIQPYLDGTRYNEKFKGKATLTVDKSSSTAFMELSSLTSEDSAVYYCARTGYGGYGLAWLAYWGQGTLVTVSA
VL: QAVVIQESALTTSPGETVTLTCRSSSGAATTSQYANWVQEKPDHLFTGLIGGSNNRAPGVPARFSGSLIGDKAALTITGAQTEDEAIYFCAIVYSNHWVFGGGTKLTVLG
For the molecule B1, the fluorescence reading (name not given) in assay [1] was found to be 0.015; in assay [2], 0.746; in assay [3] it was 0.45; in [4], 0.017; in assay [5], 0.18; in [6] it was 0.02. The fluorescence reading (name not given) in [7] stood at 0.045; in assay [8], 2.17; in assay [9] it was 0.026.

Source of the values: patent US20240270831A1.
